{"source": "patent US20240327505A1", "about": "(published 2024)", "binders": {"B1": {"name": "AB-009364 (antibody, V domains shown)", "VH": "QVQLVESGGGVVQPGRSLRLSCAASGFTFSSYAMHWVRQAPGKGLEWVAVISYDGSNKYYADSVKGRFTISRDNSKNTLYLQMNSLRAEDTAVYYCARDPDYYDSSSDAFDIWGQGTMVTVSS", "VL": "not shown"}, "B2": {"name": "AB-009361 (antibody, V domains shown)", "VH": "EVQLVESGGGLAQPGGTLRLSCTGYGFIFNNYGLTWVRQAPGKGLEWLSVLSGSSYIKYEADSVRGRFTISRDNSKNTLYLEMNSLTAEDTAVYYCARKGVGSQDYGLDVWGQGTTVIVSS", "VL": "QSVLAQPPSASETPGQSVTISCSGSTSNIGSNFVYWYQQLPGTAPKLLIYRNTQRPSGVPDRFSGSKSATSASLAISGLRPEDEADYYCAAWDDSLSGGVFGTGTKVTVL"}, "B3": {"name": "AB-009080 (antibody, V domains shown)", "VH": "QVQLQQWGAGLLKPSETLSLTCAVYGGSFSGYYWSWIRQPPGKGLEWIGEINHSGSTNYNPSLKSRVTISVDTSKNQFSLKLSSVTAADTAVYYCARGLPVTTFYYYYYGMDVWGQGTTVTVSS", "VL": "not shown"}, "B4": {"name": "AB-009329 (antibody, V domains shown)", "VH": "QLQLQESGPGLVKPSETLSLTCTVSGGSISSSSYYWGWIRQPPGKGLEWIGSIYYSGSTYYNPSLKSRVTISVDTSKNQFSLKLSSVTAADTAVYYCARHKMGWLQFAGWFDPWGQGTLVTVSS", "VL": "SSELTQDPAVSVALGQTVRITCQGDSLRSYYASWYQQKPGQAPVLVIYGKNNRPSGIPDRFSGSSSGNTASLTITGAQAEDEADYYCNSRDSSGNHWVFGGGTKLTVL"}, "B5": {"name": "AB-009110 (antibody, V domains shown)", "VH": "QVQLVQSGAEVKEPGASVKVSCNASGYIFTSYGISWVRQAPGQGLEWVGWISGNNGNTNYAQKFQGRVTLTTDTSTSTAYLELRSLTSADTGVYFCARARLPSAYWGPGTLLTVSS", "VL": "EILLTQSPATLSVSPGERGSLSCRASQSVGTNLAWYQQKPGQAPRLLIYGASARATGIPARFSGSGSGTEFTLTISSLQSEDFGVYYCQQYNDWPPWTFGQGTKVEIK"}, "B6": {"name": "AB-009343 (antibody, V domains shown)", "VH": "QAQLVESGGGVVQPGRSLRLSCAASGFTFNNHGMHWVRQVPGKGLEWVAVISYEGSKKDYADSVKGRFSISRDNSKQTVYLQMNSLRVEDTAVYYCAKDAAIFMIYPSRYFDLWGRGTLLTVSS", "VL": "SYELTQPPSMSVSPGQTASITCSGYILGDVSASWYQQKPGQSPVLIIYQDTKRPSGIPDRFSGSDSGNTATLTISGTQATDEADYYCQAWDSRTHVVFGGGTKLTVL"}, "B7": {"name": "AB-009083 (antibody, V domains shown)", "VH": "EVHLLESGGGLVQPGGSLTLTCAASGFSFGNYVMGWVRQAPGKGLEWVSSIFGSGANPHYGGSVKGRFTISRDNSQNTLFLQMDSLTAEDTAVYYCARDGGTMVGGIITGGFNYFDSWGQGTLVTVSS", "VL": "EIVLTQSPASLSLSPGGWATLSCRASRSIGNSLAWYQQRPGQAPRLLIYDASNRATGIPARFSGSGSGTDFTLTISSLEPEDFAIYYCQQRNSWPPLYTFGQGTKLEIK"}, "B8": {"name": "AB-009616 (antibody, V domains shown)", "VH": "not shown", "VL": "SYVLTQPPSVSVAPGKTARITCGGNNIGSKSVHWYQQKPGQAPVLVVYDDSDRPSGIPERFSGSNSGNTATLTISRVEAGDEADYYCQVWDSSSDPWVFGGGTKLTVL"}, "B9": {"name": "AB-009221 (antibody, V domains shown)", "VH": "EVQLVESGGGLVQPGGSLRLSCAASGFTVSSNYMSWVRQAPGKGLEWVSVIYSGGSTYYADSVKGRFTISRHNSKNTLYLQMNSLRAEDTAVYYCARDRNAFDIWGQGTMVIVSS", "VL": "DIQMTQSPSSLSASVGDRVSITCQASQDISNDLNWYQQKPGKAPKLLVYDASKLETGVPPRFSGSGSGTDFTFTISSLQPEDIATYYCQQYDNLPLYSFGQGTKLEIK"}, "B10": {"name": "AB-009269 (antibody, V domains shown)", "VH": "QVQLVQSGAEVKKPGASVKVSCKASGYTFTSYGISWVRQAPGQGLEWMGWISAYNGNTNYAQKLQGRVTMTTDTSTSTAYMELRSLRSDDTAVYYCAREGDCSGGSCYSGYYYYYGMDVWGQGTTVTVSS", "VL": "EIVLTQSPATLSLSPGERATLSCRASQSVSSYLAWYQQKPGQAPRLLIYDASNRATGIPARFSGSGSGTDFTLTISSLEPEDFAVYYCQQRSNWGTFGPGTKVDIK"}, "B11": {"name": "AB-009747 (antibody, V domains shown)", "VH": "QVQLVESGGGVVQPGGSLRLSCAASGFTFSNYGMHWVRQAPGKGLEWVAFIRYDGSNEYYADSVKGRFTISRDNSKNTLYLHMNSLRPEDTAVYYCAKQGLLSNYYYGMDVWGQGTTVTVSS", "VL": "not shown"}, "B12": {"name": "AB-009666 (antibody, V domains shown)", "VH": "EVQLVESGGGLVQPGGSLRLSCAASGFTFSSYDMHWVRQATGKGLEWVSTIGTAGDTYYPGSVKGRFTISRENAKNSLYLQMNSLRAEDTAVYYCARVNYDSSGYPTYWYFDLWGRGTLVTVSS", "VL": "DIQMTQSPSSLSASVGDRVTITCRASQSISRYLNWYQQKPGKAPKLLIYAASSLQSGVPSRFSGSGSGTDFTLTISSLQPEDFATYNCQQSYSSPPWTFGQGTKVEIK"}, "B13": {"name": "AB-009661 (antibody, V domains shown)", "VH": "QVQLVESGGGVVQPGRSLRLSCAASGFTFSSYGMHWVRQAPGKGLEWVAVISYDGSNKYYADSVKGRFTISRDNSKNTLYLQMNSLRAEDTAVYYCAKDYGDYGGMDVWGQGTTVTVSS", "VL": "not shown"}, "B14": {"name": "AB-009769 (antibody, V domains shown)", "VH": "EVQLVESGGGLVQPGGSLRLSCAASGFTFSSYWMSWVRQAPGKGLEWVANIKQDGSEKYYVDSVKGRFTISRDNAKNSLYLQMNSLRAEDTAVYYCARSPEVLWFGDPVLDNWFDPWGQGTLVTVSS", "VL": "SYELTQPPSVSVSPGQTARITCSGDALPKQYAYWYQQKPGQAPVLVIYKDSERPSGIPERFSGSSSGTTVTLTISGVQAEDEADYYCQSADSSGTYPVVFGGGTKLTVL"}, "B15": {"name": "AB-009760 (antibody, V domains shown)", "VH": "EVQLVQSGAEVKKPGESLKISCKGSGYSFTSYWIGWVRQMPGKGLEWMGIIYPGDSDTRYSPSFQGQVTISADKSISTAYLQWSSLKASDTAMYYCARSRSSDYFDYWGQGTLVTVSS", "VL": "not shown"}, "B16": {"name": "AB-009620 (antibody, V domains shown)", "VH": "QITLKESGPTLVKPTQTLTLTCTFSGFSLSTSGVGVGWIRQPPGKALEWLALIYWDDDKRYSPSLKSRLTITKDTSKNQVVLTMTNMDPVDTATYYCAHHEVATVFDYWGQGTLVTVSS", "VL": "QSALTQPASVSGSPGQSITISCTGTSSDVGAYNYVSWYQQHPGKAPKLMIYEVSNRPSGVSNRFSGSKSGNTASLTISGLQAEDEADYYCSSYTSSSTVFGGGTKLTVL"}}, "data": [{"target": "SARS-CoV-2 Spike (S) trimer (SARS-CoV-2, UniProt P0DTC2 16-1213)", "experiment": "ELISA on coated S trimer, 1:50", "units": {"OD 450 nm": "OD"}, "values": [{"binder": "B1", "OD 450 nm": 1.06}, {"binder": "B2", "OD 450 nm": 1.39}, {"binder": "B3", "OD 450 nm": 0.166}, {"binder": "B4", "OD 450 nm": 0.235}, {"binder": "B5", "OD 450 nm": 0.081}, {"binder": "B6", "OD 450 nm": 0.459}, {"binder": "B7", "OD 450 nm": 0.249}]}, {"target": "SARS-CoV-2 spike S1 protein (SARS-CoV-2, UniProt P0DTC2 16-685)", "experiment": "not given", "units": {"Kd": "nM", "koff": "s⁻¹", "kon": "M⁻¹ s⁻¹"}, "values": [{"binder": "B8", "Kd": 13.3, "koff": 0.000755, "kon": 56900}, {"binder": "B9", "Kd": 34, "koff": 0.00128, "kon": 37700}, {"binder": "B10", "Kd": 16.7, "koff": 0.000643, "kon": 38500}, {"binder": "B11", "Kd": 45.2, "koff": 0.00379, "kon": 83700}, {"binder": "B12", "Kd": 11.9, "koff": 0.000546, "kon": 45900}]}, {"target": "SARS-CoV-2 spike S2 protein (SARS-CoV-2, UniProt P0DTC2 686-1213)", "experiment": "not given", "units": {"Kd": "nM", "koff": "s⁻¹", "kon": "M⁻¹ s⁻¹"}, "values": [{"binder": "B3", "Kd": 0.111, "koff": "2.79e-07", "kon": 2520}, {"binder": "B7", "Kd": 0.164, "koff": "4.95e-07", "kon": 3010}]}, {"target": "SARS-CoV-2 spike receptor-binding domain (RBD) (SARS-CoV-2, UniProt P0DTC2 319-541)", "experiment": "not given", "units": {"Kd": "nM", "koff": "s⁻¹", "kon": "M⁻¹ s⁻¹"}, "values": [{"binder": "B8", "Kd": 3, "koff": 0.000287, "kon": 95800}, {"binder": "B9", "Kd": 26.4, "koff": 0.00121, "kon": 45800}, {"binder": "B10", "Kd": 12, "koff": 0.000675, "kon": 56300}, {"binder": "B11", "koff": 0.00105}, {"binder": "B12", "Kd": 3.04, "koff": 0.00062, "kon": 204000}]}, {"target": "SARS-CoV-2 spike S1 protein (SARS-CoV-2, UniProt P0DTC2 16-685)", "experiment": "not given", "remark": "another data set of the same source", "units": {"Kd": "nM", "koff": "s⁻¹", "kon": "M⁻¹ s⁻¹"}, "values": [{"binder": "B13", "Kd": 84, "koff": 0.00428, "kon": 51000}, {"binder": "B14", "Kd": 106, "koff": 0.00194, "kon": 18400}, {"binder": "B15", "Kd": 4.16, "koff": 0.000267, "kon": 64000}, {"binder": "B16", "Kd": 27.5, "koff": 0.00078, "kon": 28400}]}]}
